Ends that are not written are not given here.
Assays:
Assay in all cases: PepSpot peptide array
peptide 1 = molecular target: T1, peptide 1 (human)
T1 peptide: Ac-MSPSPTALFCLGL
Procedure: (§1) The peptides were synthesized on a cellulose membrane in a stepwise manner resulting in a defined arrangement (peptide array) and are covalently bound to the cellulose membrane. Binding assays were performed directly on the peptide array. In general an antigen peptide array is incubated with blocking buffer for several hours to reduce non-specific binding of proteins or antibodies. It follows the incubation with a primary (antigen peptide-binding) antibody in blocking buffer and an incubation with a horseradish peroxidase (HRP)-labelled secondary antibody, which binds selectively the primary antibody. Alternatively a HRP-labelled primary antibody in blocking buffer can be used.
(§2) A short T(Tween)-TBS-buffer washing directly after the incubation of the antigen peptide array with the secondary protein or antibody or the HRP-labelled primary antibody followed by the first chemiluminescence experiment is made to get an first overview which antigen peptides do bind the primary antibody. Several buffer washing steps follow (T-TBS- and TBS-buffer) to reduce false positive binding (unspecific antibody binding to the cellulose membrane itself). After these washing steps the final chemiluminescence analysis is performed. The data were analysed with an imaging system showing the signal intensity (Light units, LU) as single measurements for each peptide. In order to evaluate non-specific binding of secondary antibodies, incubations using the secondary antibody have to be performed in the absence of the primary antibody as control incubation.

peptide 102 = molecular target: T2, peptide 102 (human)
T2 peptide: Ac-TGTSVTPSRLPTE
Procedure: as §1, §2

peptide 107 = molecular target: T3, peptide 107 (human)
T3 peptide: Ac-PTEPPSSVAEFSE
Procedure: as §1, §2

peptide 109 = molecular target: T4, peptide 109 (human)
T4 peptide: Ac-PSSVAEFSEATAE
Procedure: as §1, §2

peptide 11 = molecular target: T5, peptide 11 (human)
T5 construct: also called QSGPLPKPSLQAL
T5 peptide: Ac-QSGPLPKPSLQAL
Procedure: as §1, §2

peptide 113 = molecular target: T6, peptide 113 (human)
T6 peptide: Ac-EATAELTVSFTNK
Procedure: as §1, §2

peptide 12 = molecular target: T7, peptide 12 (human)
T7 peptide: Ac-GPLPKPSLQALPS
Procedure: as §1, §2

peptide 123 = molecular target: T8, peptide 123 (human)
T8 peptide: Ac-RSITTSPKESDSP
Procedure: as §1, §2

peptide 126 = molecular target: T9, peptide 126 (human)
T9 peptide: Ac-PKESDSPAGPARQ
Procedure: as §1, §2

peptide 128 = molecular target: T10, peptide 128 (human)
T10 peptide: Ac-DSPAGPARQYYTK
Procedure: as §1, §2

peptide 13 = molecular target: T11, peptide 13 (human)
T11 peptide: Ac-LPKPSLQALPSSL
Procedure: as §1, §2

peptide 16 = molecular target: T12, peptide 16 (human)
T12 peptide: Ac-QALPSSLVPLEKP
Procedure: as §1, §2

peptide 27 = molecular target: T13, peptide 27 (human)
T13 peptide: Ac-GVDLYRLEKLSSS
Procedure: as §1, §2

peptide 29 = molecular target: T14, peptide 29 (human)
T14 peptide: Ac-YRLEKLSSSRYQD
Procedure: as §1, §2

peptide 33 = molecular target: T15, peptide 33 (human)
T15 peptide: Ac-SRYQDQAVLFIPA
Procedure: as §1, §2

peptide 34 = molecular target: T16, peptide 34 (human)
T16 peptide: Ac-YQDQAVLFIPAMK
Procedure: as §1, §2

peptide 36 = molecular target: T17, peptide 36 (human)
T17 peptide: Ac-AVLFIPAMKRSLA
Procedure: as §1, §2

peptide 45 = molecular target: T18, peptide 45 (human)
T18 peptide: Ac-SYQNGSLWSLPSD
Procedure: as §1, §2

peptide 47 = molecular target: T19, peptide 47 (human)
T19 peptide: Ac-GSLWSLPSDQLEL
Procedure: as §1, §2

peptide 48 = molecular target: T20, peptide 48 (human)
T20 peptide: Ac-LWSLPSDQLELVA
Procedure: as §1, §2

peptide 49 = molecular target: T21, peptide 49 (human)
T21 peptide: Ac-SLPSDQLELVATG
Procedure: as §1, §2

peptide 53 = molecular target: T22, peptide 53 (human)
T22 peptide: Ac-LVATGVFAKPSLS
Procedure: as §1, §2

peptide 55 = molecular target: T23, peptide 55 (human)
T23 peptide: Ac-GVFAKPSLSAQPG
Procedure: as §1, §2

peptide 58 = molecular target: T24, peptide 58 (human)
T24 peptide: Ac-SLSAQPGPAVSSG
Procedure: as §1, §2

peptide 6 = molecular target: T25, peptide 6 (human)
T25 peptide: Ac-LGLCLGRVPAQSG
Procedure: as §1, §2

peptide 60 = molecular target: T26, peptide 60 (human)
T26 peptide: Ac-QPGPAVSSGGDVT
Procedure: as §1, §2

peptide 61 = molecular target: T27, peptide 61 (human)
T27 peptide: Ac-GPAVSSGGDVTLQ
Procedure: as §1, §2

peptide 62 = molecular target: T28, peptide 62 (human)
T28 peptide: Ac-AVSSGGDVTLQCQ
Procedure: as §1, §2

peptide 63 = molecular target: T29, peptide 63 (human)
T29 peptide: Ac-SSGGDVTLQCQTR
Procedure: as §1, §2

peptide 64 = molecular target: T30, peptide 64 (human)
T30 peptide: Ac-GGDVTLQCQTRYG
Procedure: as §1, §2

peptide 67 = molecular target: T31, peptide 67 (human)
T31 construct: also called QCQTRYGFDQFAL
T31 peptide: Ac-QCQTRYGFDQFAL
Procedure: as §1, §2

peptide 70 = molecular target: T32, peptide 70 (human)
T32 peptide: Ac-GFDQFALYKEGDP
Procedure: as §1, §2

peptide 74 = molecular target: T33, peptide 74 (human)
T33 peptide: Ac-KEGDPAPYKNPER
Procedure: as §1, §2

peptide 75 = molecular target: T34, peptide 75 (human)
T34 peptide: Ac-GDPAPYKNPERWY
Procedure: as §1, §2

peptide 81 = molecular target: T35, peptide 81 (human)
T35 peptide: Ac-YRASFPIITVTAA
Procedure: as §1, §2

peptide 82 = molecular target: T36, peptide 82 (human)
T36 peptide: Ac-ASFPIITVTAAHS
Procedure: as §1, §2

peptide 89 = molecular target: T37, peptide 89 (human)
T37 peptide: Ac-TYRCYSFSSRDPY
Procedure: as §1, §2

peptide 9 = molecular target: T38, peptide 9 (human)
T38 peptide: Ac-RVPAQSGPLPKPS
Procedure: as §1, §2

peptide 93 = molecular target: T39, peptide 93 (human)
T39 peptide: Ac-SRDPYLWSAPSDP
Procedure: as §1, §2

peptide 94 = molecular target: T40, peptide 94 (human)
T40 construct: also called DPYLWSAPSDPLE
T40 peptide: Ac-DPYLWSAPSDPLE
Procedure: as §1, §2

peptide 95 = molecular target: T41, peptide 95 (human)
T41 peptide: Ac-YLWSAPSDPLELV
Procedure: as §1, §2

B1: monoclonal antibody hGP 5C4 (antibody, V domains shown)
VH: EVKLQESGGGLVQPGRSLKLSCTASGFTFSDYFMSWVRQAPTRGLEWVASISSGGASAYWRDSVKGRFTISRDNAKSALYLQMDSLRSEDTATYFCARGELDFDYWGQGVMVAVSS
VL: ADPNSTLLSASVGDRVTLNCTASQNVYKNLAWYQQKLGEAPRLLLYSANSQTGIPSRFSGSGSGPDFTLTISSLQPEDVASYFCQQYYSGNTFGAGTKLELKR
notes: Rat hybridoma antibody (Lou/C rats), heavy chain gamma 2a, light chain kappa; also called ab 5C4; anti-GPVI mAb 5C4
Question: B1 was tested. Which “LU (Light Units)” value (peptide 1) did it give?
Answer: 149 LU

Question: And the “LU (Light Units)” value (peptide 102)?
Answer: 160 LU

Question: And the “LU (Light Units)” value (peptide 107)?
Answer: 71 LU

Question: And the “LU (Light Units)” value (peptide 109)?
Answer: 69 LU

Question: What about the “LU (Light Units)” value (peptide 11) of the same binder?
Answer: 3540 LU

Question: And the “signal to noise ratio” value (peptide 11)?
Answer: ~20 ratio

Question: What about the “LU (Light Units)” value (peptide 113) of the same binder?
Answer: 135 LU

Question: And the “LU (Light Units)” value (peptide 12)?
Answer: 2980 LU

Question: What about the “LU (Light Units)” value (peptide 123) of the same binder?
Answer: 91 LU

Question: And the “LU (Light Units)” value (peptide 126)?
Answer: 119 LU

Question: What about the “LU (Light Units)” value (peptide 128) of the same binder?
Answer: 66 LU

Question: And the “LU (Light Units)” value (peptide 13)?
Answer: 2050 LU

Question: What about the “LU (Light Units)” value (peptide 16) of the same binder?
Answer: 80 LU

Question: What about the “LU (Light Units)” value (peptide 27) of the same binder?
Answer: 100 LU

Question: What about the “LU (Light Units)” value (peptide 29) of the same binder?
Answer: 169 LU

Question: What about the “LU (Light Units)” value (peptide 33) of the same binder?
Answer: 259 LU

Question: What about the “LU (Light Units)” value (peptide 34) of the same binder?
Answer: 125 LU

Question: What about the “LU (Light Units)” value (peptide 36) of the same binder?
Answer: 125 LU

Question: What about the “LU (Light Units)” value (peptide 45) of the same binder?
Answer: 12 LU

Question: And the “LU (Light Units)” value (peptide 47)?
Answer: 79 LU

Question: What about the “LU (Light Units)” value (peptide 48) of the same binder?
Answer: 47 LU

Question: And the “LU (Light Units)” value (peptide 49)?
Answer: 91 LU

Question: What about the “LU (Light Units)” value (peptide 53) of the same binder?
Answer: 359 LU

Question: And the “LU (Light Units)” value (peptide 55)?
Answer: 810 LU

Question: What about the “LU (Light Units)” value (peptide 58) of the same binder?
Answer: 110 LU

Question: And the “LU (Light Units)” value (peptide 6)?
Answer: 91 LU

Question: And the “LU (Light Units)” value (peptide 60)?
Answer: 88 LU

Question: What about the “LU (Light Units)” value (peptide 61) of the same binder?
Answer: 71 LU

Question: And the “LU (Light Units)” value (peptide 62)?
Answer: 49 LU

Question: What about the “LU (Light Units)” value (peptide 63) of the same binder?
Answer: 2 LU

Question: What about the “LU (Light Units)” value (peptide 64) of the same binder?
Answer: 6 LU

Question: What about the “LU (Light Units)” value (peptide 67) of the same binder?
Answer: 62 LU

Question: And the “LU (Light Units)” value (peptide 70)?
Answer: 3 LU

Question: What about the “LU (Light Units)” value (peptide 74) of the same binder?
Answer: 8 LU

Question: And the “LU (Light Units)” value (peptide 75)?
Answer: 95 LU

Question: And the “LU (Light Units)” value (peptide 81)?
Answer: 141 LU

Question: And the “LU (Light Units)” value (peptide 82)?
Answer: 149 LU

Question: What about the “LU (Light Units)” value (peptide 89) of the same binder?
Answer: 46 LU

Question: What about the “LU (Light Units)” value (peptide 9) of the same binder?
Answer: 1100 LU

Question: And the “LU (Light Units)” value (peptide 93)?
Answer: 107 LU

Question: What about the “LU (Light Units)” value (peptide 94) of the same binder?
Answer: 63 LU

Question: What about the “LU (Light Units)” value (peptide 95) of the same binder?
Answer: 120 LU

— patent publication US20070071744A1 (published 2007)
